# Measurements as given in the supplement of paper PMC10126150.
# ± gives the standard deviation of the averaged measurements.
# System: ATP
# Experiment: switch fluorescence ratio, 500 uM ATP over buffer (Cy3 cluster intensity, sum of 5 cycles each) (fold (ratio)); higher = stronger signal-on switching upon ATP binding; sequences stand for … in TCGTCGGCAGCGTCAGATGTGTATAAGAGACAGTTTTTTTTTTTTTTTTTTTTTTTTT…TC
# Conditions: aptamer strand: ATP DNA aptamer (quencher-CACCTGGGGGAGTATTGCGGAGGAAGG + anchor), 100 nM annealed; ATP concentration: 500 uM
# In short: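 The fluorescence ratio divides summed target-cycle Cy3 intensity by summed buffer-cycle Cy3 intensity for each cluster and is averaged per switch-domain sequence. Cy3-labelled switching-strand clusters on a modified Illumina MiSeq flow-cell were annealed to 100 nM quencher-labelled ATP aptamer, then imaged in selection buffer and again after 15 min with 500 uM ATP at 22 °C. Five such cycles were run, with NaOH stripping and re-annealing between them, and clusters outside 100-1000 RFU were excluded.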
# 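Further: ATP exposure 15 min at 22 °C before imaging.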
row,Sequence,switch fluorescence ratio
1,AGTCGTTGGG,0.984 ± 0.015
2,TGGGGGAAAT,1.25 ± 0.74
3,ATAAAAGAAT,0.998 ± 0.0085
4,TTTAATCGTT,0.999 ± 0.014
5,ATTGTTCTGA,1.01 ± 0.032
6,AGTTCTATTT,1.01 ± 0.021
7,ACAGAGGTTT,0.984 ± 0.035
8,AACCCGGATT,0.9958 ± 0.0035
9,GGATATTGGC,0.977 ± 0.092
10,TCAAGGGGTT,1.1 ± 0.15
11,ATTCTGTTTG,0.987 ± 0.043
12,AAGCGTGCCT,1.01 ± 0.018
13,GTGGGGGCCC,0.993 ± 0.017
14,TGGGTTATTT,1 ± 0.038
15,GAGGGCCGGG,0.995 ± 0.068
16,AGGGTATTGT,1.02 ± 0.075
17,ATGCCGGGTG,1.07 ± 0.047
18,TAATTAAATT,0.9767 ± 0.0046
19,CGTTGGGGGT,0.978 ± 0.022
20,TTGAGTGTTT,1.02 ± 0.017
21,AGTTAAGGGT,0.9925 ± 0.0071
22,AATGAGTACG,1.02 ± 0.059
23,GCTATCTCTT,1.01 ± 0.012

row,Sequence,switch fluorescence ratio
1,TTCTTAAAAG,1.02 ± 0.028
2,ATATTATGGA,1 ± 0.02
3,TTGTGTTATC,1.01 ± 0.012
4,CGCGACTAAA,0.9951 ± 0.0066
5,GGTCGCTTGG,1.04 ± 0.061
6,ATGAAAACGG,1 ± 0.051
7,CATATAGTTC,0.984 ± 0.03
8,ATATGTGGGC,0.9577 ± 0.0068
9,GAAACATTGG,1.0357 ± 0.00021
10,ATCAGTGGTT,0.974 ± 0.013
11,TTAAGTAATA,1.02 ± 0.014
12,ATAAGGCTTG,0.968 ± 0.03
13,TTGGGAATCA,0.988 ± 0.026
14,TAATAGGGGG,1.02 ± 0.035
15,TAGTCGCCGA,0.986 ± 0.017
16,ACGCACTAAG,1.61 ± 0.026
17,TCCTTGTTTT,1 ± 0.028
18,TCCAAGGTCC,1.04 ± 0.042
19,ACATGGGATT,1.01 ± 0.043
20,GGAATTCTCC,1.21 ± 0.03
21,CTTAGGCGGT,1.038 ± 0.0062
22,ACGGACGTTC,1.15 ± 0.015
23,GGTCATAGGG,0.958 ± 0.022

row,Sequence,switch fluorescence ratio
1,CGTAGACGAA,0.974 ± 0.0094
2,GTGTGAGTGT,0.973 ± 0.016
3,TTTATAGTAA,0.98978 ± 0.00052
4,TCATGCGGTG,0.967 ± 0.01
5,GGGTTTAAGT,0.986 ± 0.023
6,TACGAGGGGG,1 ± 0.021
7,CGGTTGGCCA,1 ± 0.018
8,GTGGGATCCG,0.998 ± 0.014
9,GGCGCTGGAT,1.02 ± 0.019
10,ACGTAACCTA,1.28 ± 0.014
11,GCAGCAGCTT,1.01 ± 0.039
12,AAAGTGAGGG,0.986 ± 0.013
13,TCAAGTATCT,1.02 ± 0.041
14,TGCTACAAGG,1.03 ± 0.011
15,TTGGACTAAG,0.99 ± 0.044
16,GCTAGAGGGT,1.02 ± 0.027
17,TAAGTGGTGA,1.04 ± 0.056
18,CGGGGACGAC,1.63 ± 0.72
19,ATTTTAGAGC,1.05 ± 0.038
20,TTTTCATTCT,1.01 ± 0.013
21,TCTAGAATGG,0.982 ± 0.033
22,TAGTGTAGGC,1.03 ± 0.014
23,GGTCGGGGCA,1.02 ± 0.025

row,Sequence,switch fluorescence ratio
1,TTGTAAATCG,0.975 ± 0.02
2,AGGAAGGCGG,1.02 ± 0.035
3,TGGAAGGGGG,1.01 ± 0.051
4,AATGTTTATT,0.954 ± 0.01
5,TACATCCGAG,1.08 ± 0.029
6,GGTTTCGCGC,1.01 ± 0.013
7,AGTAACATAT,0.993 ± 0.012
8,CGATTTTGGA,0.9941 ± 0.0078
9,CGTTGTATTA,0.996 ± 0.051
10,GAATTCTCCG,1.18 ± 0.012
11,GAGATGAGCG,0.997 ± 0.035
12,ATGCTGGGTT,0.993 ± 0.048
13,TAGTTATTTG,0.993 ± 0.044
14,CCATCGCCCT,1.17 ± 0.061
15,AGACGGGATG,0.973 ± 0.084
16,GGGCGCGGTG,1.06 ± 0.081
17,TTTTGAGGAG,0.9807 ± 0.0038
18,TCTATTCGGG,0.9484 ± 0.0029
19,CAGGGGGATA,1.3 ± 0.43
20,AGGAATTTGG,0.978 ± 0.024
21,TGGGATATCT,1 ± 0.023
22,GTGTTACGGG,0.985 ± 0.016
23,TAGATTTTTG,0.982 ± 0.036

row,Sequence,switch fluorescence ratio
1,GGTTAGAGTA,1.01 ± 0.025
2,GCCAGGCACT,1.005 ± 0.0077
3,ATGTACCGCG,1.06 ± 0.016
4,GCAGGGGTTA,1.28 ± 0.43
5,GGTTGGGGAT,0.979 ± 0.016
6,TAGAGGGT,0.9989 ± 0.0016
7,AGGTGCCAG,0.96208 ± 0.00094
8,CTGTAATTGG,1.006 ± 0.001
9,GTTGTGAATA,0.994 ± 0.028
10,TCTGAGCGGA,1.14 ± 0.13
11,CGGCCAGCTG,1.03 ± 0.03
12,GCCGGGCAGC,0.98 ± 0.035
13,CCGGGTTGGG,1.02 ± 0.036
14,AATGGATTTC,1 ± 0.029
15,TCGTTTAATT,0.994 ± 0.04
16,GTTGCGGAAT,1.03 ± 0.023
17,CCCGGTTTTT,1.06 ± 0.022
18,TGAGGTTTGT,0.98 ± 0.028
19,CCTCATGCCA,2.3 ± 0.11
20,GCTGTAGTTG,0.993 ± 0.019
21,CTCCGATGTG,1.57 ± 0.061
22,CGCGGGGTCC,1.05 ± 0.048
23,ATTGAAATGG,1.02 ± 0.044

row,Sequence,switch fluorescence ratio
1,TTATCTTGTT,0.988 ± 0.03
2,TAAGGCGTAG,1.08 ± 0.061
3,GTATACGGCA,1.01 ± 0.022
4,CGGTTACGGA,0.977 ± 0.035
5,TTTGAATGGG,0.985 ± 0.029
6,CGTTCAGTTC,0.972 ± 0.053
7,AAGTTAATTT,0.998 ± 0.021
8,TTTGTGTGGT,0.978 ± 0.017
9,TTTTAAAGCT,1.09 ± 0.039
10,TGGAGGAGGA,0.982 ± 0.025
11,GGAGACTGGT,1.02 ± 0.063
12,TTTCAGTTCT,0.9773 ± 0.005
13,TGTTGGGATT,0.998 ± 0.016
14,GGGCTTTACG,1.01 ± 0.011
15,TTTCACAGCT,1.03 ± 0.041
16,GCCGGCTTTG,1.03 ± 0.026
17,ATGTGGGATT,0.965 ± 0.013
18,AAAGATTTTT,0.9851 ± 0.0092
19,ATACGGATGG,0.984 ± 0.033
20,GGGAAAAAGA,1.03 ± 0.012
21,ATTTGGGGAG,1.02 ± 0.048
22,AATTGCAGAG,1.014 ± 0.0032
23,GGTAGATATG,1.021 ± 0.0078

row,Sequence,switch fluorescence ratio
1,AAATGTGGAG,0.984 ± 0.021
2,GGGCATGCAT,1.019 ± 0.0086
3,GGGGCAGGCT,0.886 ± 0.18
4,AGTAGGGCTC,1 ± 0.046
5,CTTGCGGGGA,1.0408 ± 0.00045
6,GAGCAATTTT,2.31 ± 0.15
7,GCGGTGGACG,0.947 ± 0.077
8,AAGACGGGGA,0.974 ± 0.023
9,TAGGGAATTG,1.01 ± 0.011
10,AAATGATAAG,0.998 ± 0.021
11,CACTGGGGCA,1.1 ± 0.15
12,GGGGAGGGAC,1.02 ± 0.053
13,TGGAGGGTGG,1.01 ± 0.019
14,TGCCCCTGGC,0.978 ± 0.042
15,CCGGGTAGTA,1.12 ± 0.11
16,AAGAAAACGA,0.998 ± 0.011
17,ATTATTAACG,0.993 ± 0.033
18,GCCAGTTGTC,0.998 ± 0.041
19,TGGTACCTTG,1.19 ± 0.26
